Target: SARS-CoV-2 receptor binding domain (RBD), Wuhan-1 (SARS-CoV-2 Wuhan-Hu-1, UniProt P0DTC2)
Experiment: SPR

B1: eCC12.1.7 IgG (antibody, V domains shown)
VH: EVQLVESGGGLIQPGGSLRLSCAASGLTVSSNYMTWVRQAPGKGLEWVSVIYAGGSTFYADSVKGRFTISRDNSKNTLYLQMNSLRAEDTAVYYCARDLDVYGVDVWGQGTTVTVSS
VL: DIQLTQSPSFLSASVGDRVTITCRASQGISRYLAWYQQKPGKAPKLLIYAASTLQYGVPSRFSGSGSGTEFTLTISSLQPEDFATYYCQQLNSYPPKYTFGPGTKVEIK
Q: Does B1 bind?
A: Result: binds

— publication doi:10.1101/2022.01.06.475303 (bioRxiv, 2022)
